Reference: patent publication US20160215061A1 (Merck Sharp & Dohme, published 2016)

T1: recombinant human FcγRIIB expressed in CHO cells (human, UniProt P31994 43-217, limits assumed)
T1 construct: Soluble analyte injected in SPR; also called human FcgRIIB; rhFcgRIIB (CHO)
T1 sequence (looked up): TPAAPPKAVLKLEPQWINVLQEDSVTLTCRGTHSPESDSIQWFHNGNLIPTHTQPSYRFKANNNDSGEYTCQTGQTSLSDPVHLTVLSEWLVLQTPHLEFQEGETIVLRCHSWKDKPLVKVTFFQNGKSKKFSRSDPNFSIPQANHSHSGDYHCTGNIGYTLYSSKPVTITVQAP

T2: recombinant mouse FcγRIIB expressed in NS0 cells (mouse, UniProt P08101 40-207, limits assumed)
T2 construct: Bought from R&D Systems; soluble analyte injected in SPR; also called rmFcgRIIB (NSO); CD32-B
T2 sequence (looked up): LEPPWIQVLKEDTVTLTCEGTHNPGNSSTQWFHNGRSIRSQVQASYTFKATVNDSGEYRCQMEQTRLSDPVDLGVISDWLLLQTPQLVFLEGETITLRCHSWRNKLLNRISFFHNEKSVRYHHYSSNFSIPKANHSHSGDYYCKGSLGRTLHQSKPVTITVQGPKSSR


Experiments:
[1] = molecular target: T1, recombinant human FcγRIIB expressed in …; test: SPR (Biacore), 1/1 binding model; reference Herceptin
[2] = molecular target: T1, recombinant human FcγRIIB expressed in …; test: SPR (Biacore); capture sample on chip, rhFcgRIIB (CHO) injected; reference Herceptin
Description: (§1) Purified IgGs were analyzed by SDS-PAGE for expression and assayed for binding to human or mouse FcγRIIB. […] The CMS chip (GE Healthcare, Wauwatusa, Wis.) was immobilized on all flow cells with mouse anti-human IgG (Fc specific) (obtained from GE Healthcare, Wauwatusa, Wis.) according to the Biacore Human Antibody Capture Kit to ˜7000 RU. Purified full-length IgG1 variants containing mutations in Fc region (described in Example 1) were captured on the chip through immobilized mouse anti-human IgG (obtained from GE Healthcare, Wauwatusa, Wis.) followed by injection of human or mouse FcγRIIB. Human FcγRIIB was expressed in Chinese Hamster Ovary cells (Merck, Whithouse Station, N.J.) and mouse FcγRIIB was expressed in NS0 murine myeloma (R&D Systems, Minneapolis, Minn.)). Each flowcell was regenerated between each analyte injection with 3M MgCl for 40 s at 10 μl/min. Data was analyzed with Biacore T100 Evaluation Software using the 1/1 binding model for KD values, where reported. Amino acid compositions of novel variants were identified by DNA sequencing. Clones were tabulated based on response units (RU's) registered following receptor binding.
(§2) Resulting clones were fermented in 1 L bioreactor vessels to produce each of the described variants. Culture supernatants were passed over protein A coated beads to capture secreted Fc fragments. Purified Fc fragments were eluted at pH 3.0 into tubes containing 1M Tris (pH 8.0). Purified Fc fragments were analyzed by surface plasmon resonance (SPR) on Biacore for binding to human and mouse FcγRIIB as described in Example 2.

[3] = molecular target: T2, recombinant mouse FcγRIIB expressed in …; test: SPR (Biacore); capture sample on chip, rmFcgRIIB (NSO) injected; reference Herceptin
Description: as §1, §2

Binder | Fold Improvement in KD vs WT IgG1 rhFcgRIIb [1] [fold] | Fold Increase in RU vs WT IgG1 [2] [fold] | Fold Increase in RU vs WT IgG1 [3] [fold]
F243A/V264A/S267E/L328F Fc (SEQ ID NO8) (other, Human IgG1 Fc fragment with F243A, V264A, S267E, L328F (EU)) AEPKSCDKTHTCPPCPAPELLGGPSVFLAPPKPKDTLMISRTPEVTCVVADVEHEDPEVKFNWYVDGVEVHNAKTKPREEQYNSTYRVVSVLTVLHQDWLNGKEYKCKVSNKAFPAPIEKTISKAKGQPREPQVYTLPPSREEMTKNQVSLTCLVKGFYPSDIAVEWESNGQPENNYKTTPPVLDSDGSFFLYSKLTVDKSRWQQGNVFSCSVMHEALHNHYTQKSLSLSPG | 11 | 7 | 2.4
183-D4/F241A Fc (SEQ ID NO13) (other, Human IgG1 Fc fragment with F241A, K317E, K326E, A339T, Q342R, K414R (EU)) AEPKSCDKTHTCPPCPAPELLGGPSVALFPPKPKDTLMISRTPEVTCVVVDVSHEDPEVKFNWYVDGVEVHNAKTKPREEQYNSTYRVVSVLTVLHQDWLNGEEYKCKVSNEALPAPIEKTISKTKGRPREPQVYTLPPSRDELTKNQVSLTCLVKGFYPSDIAVEWESNGQPENNYKTTPPVLDSDGSFFLYSKLTVDRSRWQQGNVFSCSVMHEALHNHYTQKSLSLSPGK | – | 4.7 | 5
K317E/K326E/K414R Fc (SEQ ID NO11) (other, Human IgG1 Fc fragment, made in glycoengineered Pichia pastoris) AEPKSCDKTHTCPPCPAPELLGGPSVFLFPPKPKDTLMISRTPEVTCVVVDVSHEDPEVKFNWYVDGVEVHNAKTKPREEQYNSTYRVVSVLTVLHQDWLNGEEYKCKVSNEALPAPIEKTISKAKGQPREPQVYTLPPSRDELTKNQVSLTCLVKGFYPSDIAVEWESNGQPENNYKTTPPVLDSDGSFFLYSKLTVDRSRWQQGNVFSCSVMHEALHNHYTQKSLSLSPGK | – | – | 5.2
183-D4/F241A/L328F Fc (SEQ ID NO12) (other, Human IgG1 Fc fragment with F241A, K317E, K326E, L328F, A339T, Q342R, K414R (EU)) AEPKSCDKTHTCPPCPAPELLGGPSVALFPPKPKDTLMISRTPEVTCVVVDVSHEDPEVKFNWYVDGVEVHNAKTKPREEQYNSTYRVVSVLTVLHQDWLNGEEYKCKVSNEAFPAPIEKTISKTKGRPREPQVYTLPPSRDELTKNQVSLTCLVKGFYPSDIAVEWESNGQPENNYKTTPPVLDSDGSFFLYSKLTVDRSRWQQGNVFSCSVMHEALHNHYTQKSLSLSPGK | – | 1.2 | 1.3
